The supplement of paper PMC7125110
± gives the standard error. For some assays here: Variants at the floor of the assay were thinned out.

B1: glmS ribozyme (parent)
chain: AUAAAAGCGCCAGAACUACAGAAAUGUAGUUGACGAGGAGGAGGUUUAUCGAAUUUUCGGCGGAUGCCUCCAAA

Key:
Settings in all cases: with glucosamine-6-phosphate
[1] = variants of: B1; assay: kcat; higher = faster cleavage; RNA array
Outline: (§1)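 The measurements used barcoded ribozyme variants on sequenced MiSeq chips, transcribed in situ by E. coli RNA polymerase and tracked at 37 °C with a hybridised Cy3 probe. Glucosamine-6-phosphate, 40 μM to 10 mM in HEPES/KCl/Mg(OAc)2 buffer, was flowed in while tiles were imaged over ~14 h. Baseline-normalised signals, also normalised to non-cleaving reference variants, gave per-tile medians that were fit to one- or two-exponential decays for kobs. kcat and KM resulted from weighted Michaelis–Menten fits across concentrations.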

[2] = variants of: B1; assay: KM; higher = weaker cofactor use; RNA array
Outline: as §1

[3] = variants of: B1; assay: self-cleavage kobs at 40 uM GlcN6P; higher = faster cleavage; RNA array
Outline: as §1

[4] = variants of: B1; assay: self-cleavage kobs at 640 uM GlcN6P; higher = faster cleavage; RNA array
Outline: as §1

[5] = variants of: B1; assay: self-cleavage kobs at 10000 uM GlcN6P; higher = faster cleavage; RNA array
Outline: as §1

[6] = variants of: B1; assay: self-cleavage kobs at 160 uM GlcN6P; higher = faster cleavage; RNA array
Outline: as §1

[7] = variants of: B1; assay: self-cleavage kobs at 2500 uM GlcN6P; higher = faster cleavage; RNA array
Outline: as §1

| Variant | kcat [1] | KM [2] | self-cleavage kobs at 40 uM GlcN6P [3] | self-cleavage kobs at 640 uM GlcN6P [4] | self-cleavage kobs at 10000 uM GlcN6P [5] | self-cleavage kobs at 160 uM GlcN6P [6] | self-cleavage kobs at 2500 uM GlcN6P [7] |
| --- | --- | --- | --- | --- | --- | --- | --- |
| C11A U65G | 3.43e-05 ± 4.3e-07 s⁻¹ | 777 ± 84 µM | < 1e-05 s⁻¹ | < 1e-05 s⁻¹ | 3.18e-05 ± 1.3e-05 s⁻¹ |  |  |
| U30G G41A | 0.000293 ± 2.6e-05 s⁻¹ | 881 ± 160 µM |  | 0.000124 ± 2e-05 s⁻¹ | 0.000248 ± 4.4e-05 s⁻¹ | 4.24e-05 ± 1.1e-05 s⁻¹ | 0.00025 ± 4.4e-05 s⁻¹ |
| G13U C70U | 0.00213 ± 0.00039 s⁻¹ | 3200 ± 840 µM | 2.45e-05 ± 1e-05 s⁻¹ | 0.000329 ± 5.2e-05 s⁻¹ | 0.00172 ± 0.00026 s⁻¹ | 0.000126 ± 2.3e-05 s⁻¹ | 0.000792 ± 0.00018 s⁻¹ |
| A14U C58U | 0.000114 ± 1.5e-05 s⁻¹ | 2600 ± 960 µM |  |  | 9.01e-05 ± 1e-05 s⁻¹ |  | 5.89e-05 ± 1.1e-05 s⁻¹ |
| C50A C58U | 1.33e-05 ± 5.8e-06 s⁻¹ |  |  | < 1e-05 s⁻¹ |  |  |  |
| A14G C71U | 0.133 ± 0.062 s⁻¹ |  | 0.0019 ± 0.00017 s⁻¹ | 0.0171 ± 0.0027 s⁻¹ | 0.112 ± 0.022 s⁻¹ | 0.00542 ± 0.00067 s⁻¹ | 0.0711 ± 0.027 s⁻¹ |
| A15U U31C | 0.00128 ± 0.0001 s⁻¹ | 2710 ± 340 µM | 1.67e-05 ± 5.8e-06 s⁻¹ | 0.000233 ± 1.9e-05 s⁻¹ | 0.000981 ± 7.1e-05 s⁻¹ | 7.32e-05 ± 7.2e-06 s⁻¹ | 0.000703 ± 6.9e-05 s⁻¹ |
| G26A | 0.0116 ± 0.0035 s⁻¹ |  | 0.00121 ± 0.00035 s⁻¹ | 0.0112 ± 0.0022 s⁻¹ |  | 0.00345 ± 0.0008 s⁻¹ | 0.00852 ± 0.0022 s⁻¹ |
| G40A U55C | 0.0017 ± 0.00029 s⁻¹ | 1980 ± 650 µM | 4.24e-05 ± 1.5e-05 s⁻¹ | 0.00035 ± 0.0001 s⁻¹ | 0.0014 ± 0.00025 s⁻¹ |  | 0.00119 ± 0.00036 s⁻¹ |
| U45G C67U | 0.00709 ± 0.0025 s⁻¹ | 2100 ± 1100 µM | 0.000204 ± 3.5e-05 s⁻¹ | 0.00181 ± 0.00028 s⁻¹ | 0.00733 ± 0.00094 s⁻¹ | 0.000462 ± 6.3e-05 s⁻¹ | 0.00248 ± 0.00057 s⁻¹ |
| A33C G41U | < 1e-05 s⁻¹ |  |  | < 1e-05 s⁻¹ |  |  |  |
| U54G A64G | 0.0237 ± 0.011 s⁻¹ |  | 0.000837 ± 0.0001 s⁻¹ | 0.0071 ± 0.0013 s⁻¹ | 0.0227 ± 0.0052 s⁻¹ | 0.00149 ± 0.00039 s⁻¹ | 0.0145 ± 0.0059 s⁻¹ |
| G37C U47C | < 1e-05 s⁻¹ |  | < 1e-05 s⁻¹ |  |  | < 1e-05 s⁻¹ |  |
| A53G C68A | 5.55e-05 ± 7.9e-06 s⁻¹ |  |  | 6.08e-05 ± 1.2e-05 s⁻¹ | 4.54e-05 ± 7.8e-06 s⁻¹ | 5.86e-05 ± 1.5e-05 s⁻¹ | 6.36e-05 ± 1e-05 s⁻¹ |
| G29A U45C | 0.000385 ± 7.7e-05 s⁻¹ | 2000 ± 720 µM |  | 8.28e-05 ± 1.4e-05 s⁻¹ | 0.000293 ± 5e-05 s⁻¹ | 3.6e-05 ± 1.4e-05 s⁻¹ | 0.000273 ± 4.1e-05 s⁻¹ |
| G37A C67G | 1.61e-05 ± 2e-06 s⁻¹ |  |  |  |  |  |  |
| G13U G40C | 8.27e-05 ± 6.4e-06 s⁻¹ | 994 ± 460 µM |  |  | 7.64e-05 ± 9.8e-06 s⁻¹ |  | 4.94e-05 ± 1.9e-05 s⁻¹ |
| C8U C10A A15U G38A C50U | < 1e-05 s⁻¹ |  |  |  |  |  |  |

| Variant | kcat [1] | KM [2] | self-cleavage kobs at 40 uM GlcN6P [3] | self-cleavage kobs at 640 uM GlcN6P [4] | self-cleavage kobs at 10000 uM GlcN6P [5] | self-cleavage kobs at 160 uM GlcN6P [6] | self-cleavage kobs at 2500 uM GlcN6P [7] |
| --- | --- | --- | --- | --- | --- | --- | --- |
| U47G C50G C68U | 6.02e-05 ± 2e-05 s⁻¹ |  |  |  | 3.03e-05 ± 1.3e-05 s⁻¹ | 7.17e-05 ± 9.5e-06 s⁻¹ | 7.59e-05 ± 1.6e-05 s⁻¹ |
| U30C C71G | 4.29e-05 ± 9.8e-06 s⁻¹ |  |  | 4.3e-05 ± 1.8e-05 s⁻¹ | 3.35e-05 ± 7.1e-06 s⁻¹ |  | 7.05e-05 ± 1.2e-05 s⁻¹ |
| G29C A33G | 1.09e-05 ± 3.1e-06 s⁻¹ |  |  |  |  |  |  |
| G32A A33G | 1.05e-05 ± 2.6e-06 s⁻¹ |  | < 1e-05 s⁻¹ |  |  |  |  |
| G32A G59A C68U | 1.04e-05 ± 2.4e-06 s⁻¹ |  |  |  |  |  |  |
| G29U G40A | 0.000509 ± 4.9e-05 s⁻¹ | 859 ± 180 µM | 2.61e-05 ± 7.8e-06 s⁻¹ | 0.000221 ± 3.7e-05 s⁻¹ | 0.000441 ± 4.7e-05 s⁻¹ | 7.2e-05 ± 1.3e-05 s⁻¹ | 0.000464 ± 6.4e-05 s⁻¹ |
| G9A G37U C70G | 1.52e-05 ± 2.5e-06 s⁻¹ |  |  |  |  |  | < 1e-05 s⁻¹ |
| A15C G29A | 0.0015 ± 0.00014 s⁻¹ | 6270 ± 870 µM |  | 0.000137 ± 2.3e-05 s⁻¹ | 0.000924 ± 0.00012 s⁻¹ |  | 0.000429 ± 9.7e-05 s⁻¹ |
| A15G G60U | < 1e-05 s⁻¹ |  | < 1e-05 s⁻¹ | < 1e-05 s⁻¹ |  | < 1e-05 s⁻¹ |  |
| A6U U47G | 5.58e-05 ± 2.6e-06 s⁻¹ | 564 ± 180 µM |  |  | 5.16e-05 ± 6.8e-06 s⁻¹ |  | 4.79e-05 ± 7.2e-06 s⁻¹ |
| C11A U55G | 0.000167 ± 5.3e-05 s⁻¹ |  |  | 3.28e-05 ± 1.1e-05 s⁻¹ | 0.000125 ± 2.1e-05 s⁻¹ |  | 0.000159 ± 2.4e-05 s⁻¹ |
| U57A G63A | < 1e-05 s⁻¹ |  |  |  | < 1e-05 s⁻¹ | < 1e-05 s⁻¹ |  |
| G13U C68U | 0.000114 ± 6.9e-06 s⁻¹ | 1630 ± 310 µM |  | 2.76e-05 ± 8.2e-06 s⁻¹ | 9.63e-05 ± 8.5e-06 s⁻¹ |  | 7.37e-05 ± 8.5e-06 s⁻¹ |
| U31G U54C | 0.014 ± 0.0061 s⁻¹ |  | 0.000233 ± 4e-05 s⁻¹ | 0.00289 ± 0.00053 s⁻¹ | 0.0136 ± 0.0038 s⁻¹ | 0.000516 ± 0.00013 s⁻¹ | 0.00559 ± 0.00098 s⁻¹ |
| A14C U65C | 8.26e-05 ± 1.1e-05 s⁻¹ | 1220 ± 570 µM | < 1e-05 s⁻¹ | 3.59e-05 ± 1.4e-05 s⁻¹ | 7.7e-05 ± 1.2e-05 s⁻¹ |  | 4.9e-05 ± 1.1e-05 s⁻¹ |
| A15G A36G | 1.79e-05 ± 1.6e-07 s⁻¹ | 8450 ± 150 µM |  |  |  |  |  |
| U57A C61A | 1.53e-05 ± 5.7e-06 s⁻¹ |  |  |  |  |  |  |
| G35U U55C | < 1e-05 s⁻¹ |  | < 1e-05 s⁻¹ |  | < 1e-05 s⁻¹ | < 1e-05 s⁻¹ | < 1e-05 s⁻¹ |
